The results in this text go back to the FLAb antibody collection (doi:10.7554/elife.23156).

The chains are these.
B1: scFv; the commonest letter at each place (parent)
chain 1: EVKLDETGGGLVQPGRPMKLSCVASGFTFSDYWMNWVRQSPEKGLEWVAQIRNKPYNYETYYSDSVKGRFTISRDDSKSSVYLQMNNLRVEDMGIYYCTGSYYGMDYWGQGTSVTVS
chain 2: DVVMTQTPLSLPVSLGDQASISCRSSQSLVHSNGNTYLRWYLQKPGQSPKVLIYKVSNRFSGVPDRFSGSGSGTDFTLKISRVEAEDLGVYFCSQSTHVPWTFGGGTKLEIK

The variants in the data set “fluorescein” derive from B1. Briefly: Kd (Tite-Seq). The conditions noted are these: with fluorescein; format: scFv 4-4-20, heavy + light.
Variants of B1 are the subject of data set [1]. Briefly: yeast surface expression (ratio to wild type); higher = more expressed. The conditions noted are these: format: scFv 4-4-20, heavy + light.

chain 1 G100Q G109E: the equilibrium dissociation constant (Kd) with fluorescein was no less than 10 µM. In addition, the yeast surface expression in data set [1] was determined as 0.304.
As for chain 1 F29Y S30A D31M, the Kd with fluorescein came out at 0.216 µM. In data set [1], the yeast surface expression is 0.826.
Regarding chain 1 Y102A M105N, the Kd with fluorescein worked out at 0.0113 µM. Also, in data set [1], the yeast surface expression came out at 1.14.
On to chain 1 Y103D M105N, for which, in the data set with fluorescein, the Kd was no less than 10 µM. Further, in data set [1], the yeast surface expression was found to be 1.19.
For chain 1 F29S W33H, the Kd in the data set with fluorescein was no less than 10 µM. In addition, the yeast surface expression in data set [1] was found to be 0.724.
As for chain 1 M34F W36Y, in the data set with fluorescein, the dissociation constant Kd was determined as 0.00468 µM. Also, the yeast surface expression in data set [1] is 0.948.
In the case of chain 1 Y102F G104K, the Kd in the data set with fluorescein was no less than 10 µM. In addition, the yeast surface expression in data set [1] is 0.81.
chain 1 S30Q D31H Y32N: in the data set with fluorescein, the Kd is no less than 10 µM. Also, the yeast surface expression in data set [1] was 0.857.
With chain 1 G100A Y103K G109T, the dissociation constant (Kd) in the data set with fluorescein was 3.2 µM. Also, the yeast surface expression in data set [1] came out at 0.753.
In the same order, the values of chain 1 M105Q D106Q are no less than 10 µM and 1.01.
Regarding chain 1 Y102Q Y107H, in the data set with fluorescein, the Kd came out at 2.01 µM. For the same variant, the yeast surface expression in data set [1] was determined as 1.01.
Consider chain 1 Y103L D106P, for which, in the data set with fluorescein, the equilibrium dissociation constant (Kd) is no less than 10 µM. Also, the yeast surface expression in data set [1] was determined as 0.559.
With chain 1 G100F S101M, in the data set with fluorescein, the Kd was no less than 10 µM. The yeast surface expression in data set [1] came out at 0.704.
Consider chain 1 F29V N35V, for which the Kd with fluorescein was no less than 10 µM. In data set [1], the yeast surface expression is 0.239.
On to chain 1 T28G F29R W36P, for which, in the data set with fluorescein, the dissociation constant Kd is no less than 10 µM. The yeast surface expression in data set [1] was 0.146.
On to chain 1 Y32S, for which the Kd with fluorescein is 0.155 µM. Moreover, the yeast surface expression in data set [1] was found to be 1.06.
With chain 1 G104D W108Q, in the data set with fluorescein, the Kd is no less than 10 µM. Moreover, in data set [1], the yeast surface expression came out at 0.249.
Regarding chain 1 T28D V37C, in the data set with fluorescein, the Kd was no more than 0.000316 µM. In addition, in data set [1], the yeast surface expression stood at 0.886.
For the variant chain 1 F29C N35I, the Kd with fluorescein was no less than 10 µM. In data set [1], the yeast surface expression stood at 1.12.
Consider chain 1 Y103L G109S, for which the Kd with fluorescein worked out at 0.167 µM. Besides, in data set [1], the yeast surface expression turned out to be 0.855.
Turning to chain 1 Y103S M105R, the Kd with fluorescein was 0.176 µM. Further, the yeast surface expression in data set [1] came to 0.819.
Consider chain 1 G104Q G109Q, for which the Kd in the data set with fluorescein was no less than 10 µM. The yeast surface expression in data set [1] is 0.248.
Consider chain 1 M105Q G109H, for which, in the data set with fluorescein, the dissociation constant (Kd) was no less than 10 µM. In addition, in data set [1], the yeast surface expression was found to be 0.299.
With chain 1 T28S D31C, the dissociation constant (Kd) with fluorescein was found to be 0.0767 µM. Moreover, the yeast surface expression in data set [1] was 0.771.
As for chain 1 Y107F, the Kd with fluorescein is 0.0017 µM. For the same variant, in data set [1], the yeast surface expression is 0.928.
The corresponding values for chain 1 G100D D106G G109S are no less than 10 µM and 0.224.
With chain 1 S30D, the equilibrium dissociation constant (Kd) with fluorescein was determined as 0.00205 µM. Also, the yeast surface expression in data set [1] amounted to 0.919.
In the case of chain 1 F29V, the Kd with fluorescein was 0.00967 µM. Also, the yeast surface expression in data set [1] came to 0.929.
In the same order, the values of chain 1 F29G are no less than 10 µM and 0.925.
chain 1 F29A: the dissociation constant Kd with fluorescein amounted to 0.0221 µM. In addition, in data set [1], the yeast surface expression turned out to be 0.974.
Regarding chain 1 G100C G104I, the equilibrium dissociation constant (Kd) in the data set with fluorescein was no less than 10 µM. For the same variant, in data set [1], the yeast surface expression is 0.267.
As for chain 1 G100W W108V, the dissociation constant (Kd) with fluorescein is 0.15 µM. Moreover, the yeast surface expression in data set [1] worked out at 0.251.
Take chain 1 Y107A G109Q: in the data set with fluorescein, the equilibrium dissociation constant (Kd) is no less than 10 µM. Besides, the yeast surface expression in data set [1] was 0.292.
With chain 1 S101F G104I, the Kd with fluorescein was no less than 10 µM. Moreover, the yeast surface expression in data set [1] came out at 0.187.
As for chain 1 G100H S101G, the dissociation constant (Kd) in the data set with fluorescein was no less than 10 µM. For the same variant, the yeast surface expression in data set [1] stood at 0.649.
For chain 1 M34L W36V, in the data set with fluorescein, the dissociation constant (Kd) is no less than 10 µM. Also, in data set [1], the yeast surface expression stood at 0.558.
Consider chain 1 S101D G104D Y107K, for which the dissociation constant (Kd) in the data set with fluorescein is no less than 10 µM. For the same variant, the yeast surface expression in data set [1] worked out at 0.674.
In the case of chain 1 M34R, the Kd in the data set with fluorescein was 9.5 µM. In data set [1], the yeast surface expression is 0.851.
In the case of chain 1 M34H, in the data set with fluorescein, the Kd is no less than 10 µM. Besides, the yeast surface expression in data set [1] worked out at 0.737.
Take chain 1 M34F: the equilibrium dissociation constant (Kd) in the data set with fluorescein stood at 0.00226 µM. Further, in data set [1], the yeast surface expression was 0.988.
On to chain 1 S101E Y102Q W108C, for which the Kd in the data set with fluorescein is no less than 10 µM. In addition, in data set [1], the yeast surface expression worked out at 0.541.
In the same order, the values of chain 1 W108H G109C are no less than 10 µM and 0.362.
Turning to chain 1 Y102K G104L D106G, in the data set with fluorescein, the dissociation constant Kd is no less than 10 µM. Also, the yeast surface expression in data set [1] was 0.302.
In the case of chain 1 F29I N35R, the Kd in the data set with fluorescein was no less than 10 µM. The yeast surface expression in data set [1] is 0.852.
The corresponding values for chain 1 D31E M34P are no less than 10 µM and 0.406.
As for chain 1 T28K W33D, the Kd in the data set with fluorescein was no less than 10 µM. Further, the yeast surface expression in data set [1] came out at 0.981.
In the same order, the values of chain 1 N35I W36N are no less than 10 µM and 0.743.
Turning to chain 1 T28S Y32S, the dissociation constant Kd in the data set with fluorescein is 0.266 µM. In addition, the yeast surface expression in data set [1] is 0.966.
In the same order, the values of chain 1 M105G are no less than 10 µM and 0.761.
Consider chain 1 G100C S101C, for which the Kd in the data set with fluorescein is no less than 10 µM. Further, the yeast surface expression in data set [1] is 0.624.
The corresponding values for chain 1 S101P Y107F W108F are no less than 10 µM and 0.239.
In the same order, the values of chain 1 F29D S30K are no less than 10 µM and 0.968.
The corresponding values for chain 1 F29D S30A are no less than 10 µM and 0.941.
chain 1 Y102M G104M: the dissociation constant Kd with fluorescein was no less than 10 µM. For the same variant, the yeast surface expression in data set [1] was determined as 0.472.
For the variant chain 1 M105Y W108R, the Kd in the data set with fluorescein is no less than 10 µM. The yeast surface expression in data set [1] was found to be 0.286.
With chain 1 Y102Q W108Q, the Kd in the data set with fluorescein was no less than 10 µM. Besides, the yeast surface expression in data set [1] was determined as 0.508.
chain 1 T28R D31K: the Kd in the data set with fluorescein was 0.00325 µM. For the same variant, the yeast surface expression in data set [1] was 0.833.

In general, Kd refers to the equilibrium constant for the complex coming apart.
